Data from US20230340111A1 (published 2023).
Positions count from the first letter of the chain named. Blank lines part the entries; values can stand above or below the binder they belong to.

Tests used:
[1] = target: T1, human FOLR1 recombinant protein (extracellular domain of human folate receptor alpha) (human, UniProt P15328 25-233); test: SPR (Biacore T200), human FOLR1 immobilized on CM5, His6-tagged VHH as analyte, 1:1 fit
T1 construct: Bought recombinant protein (Sino Biological); also called hFOLR1; FR-alpha
T1 sequence (P15328 25-233): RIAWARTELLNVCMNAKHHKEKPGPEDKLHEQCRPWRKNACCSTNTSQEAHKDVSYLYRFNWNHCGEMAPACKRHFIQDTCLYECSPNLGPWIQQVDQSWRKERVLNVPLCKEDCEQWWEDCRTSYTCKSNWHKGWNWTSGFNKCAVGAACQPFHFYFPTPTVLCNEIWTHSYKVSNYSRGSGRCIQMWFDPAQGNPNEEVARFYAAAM
Procedure: The kinetic parameters of antigen binding by purified VHHs were determined via surface plasmon resonance with a Biacore T200 instrument (GE Healthcare). The human FOLR1 recombinant protein (Sino Biological) was immobilized in 10 mM sodium acetate, pH 5.5 on a CM5 chip (GE Healthcare) via amine coupling chemistry to 500 RU. His₆-tagged VHHs were analyzed in a twofold serial dilution in HBS (125 nM-0.488 nM for VHHs A4 and A5; 10 nM-0.039 nM for VHHs A1, A2 and A3) with an analyte flow rate of 30 µl/min. The association phase took 180 s (A4-A5) or 450 s (A1-A3) and the dissociation phase 600 s (A4-A5) or 900 s (A1-A3). Regeneration was done by a single injection of 50 mM glycine-HCl, pH 2.5, 2 M MgCl₂ for 30 s at 30 µl/min, followed by 120 s stabilization. Binding curves were fitted using a ‘1:1 (antigen:analyte)’ binding model in Biacore T200 evaluation software.

[2] = target: T1, human FOLR1 recombinant protein …; test: SPR (Biacore T200), single cycle kinetics, His6-tagged VHH immobilized on CM5, human FOLR1 as analyte, 1:1 fit
Procedure: The kinetic parameters of antigen binding for purified VHHs A1, A2 and A3 were determined via surface plasmon resonance with a Biacore T200 instrument (GE Healthcare) using single cycle kinetics mode. While example 4d provides a first and preferred way of assessing the kinetic parameters of antigen binding for VHHs using surface plasmon resonance, this example provides an alternative setup for using surface plasmon resonance to assess the kinetic parameters of antigen binding, inverting the analyte and immobilized ligand. His₆-tagged VHH A1, A2 or A3 was immobilized in 10 mM sodium acetate, pH 5.5 on a CM5 chip (GE Healthcare) via amine coupling chemistry to 160 RU. The human FOLR1 recombinant protein (Sino Biological) was analyzed in a threefold serial dilution in HBS (38.5 nM-0.47 nM) with an analyte flow rate of 30 µl/min. The association phase took 180 s for every concentration and the dissociation phase 900 s. Regeneration was done by a single injection of 50 mM glycine-HCl, pH 2.5, 2 M MgCl2 for 30 s at 30 µl/min, followed by 120 s stabilization. Binding curves were fitted using a ‘1:1 (antigen:analyte)’ binding model in Biacore T200 evaluation software.

[3] = target: T1, human FOLR1 recombinant protein …; test: SPR dual injection on immobilized human FOLR1, 250 nM; competitor (1st VHH, saturating) A1; by the legend the value is of the 2nd VHH
Procedure: (§1) Competitive binding characteristics of His₆-tagged VHHs were determined via surface plasmon resonance with a Biacore T200 instrument (GE Healthcare). Immobilization of human FOLR1 recombinant protein (Sino Biological) and regeneration were performed as described below for kinetic measurements.
(§2) Table 8: Side-by-side comparison of His₆-tagged VHHs A1, A2, A3, A4, A5 for binding to human FOLR1 to identify competitive binding characteristics. Binding was measured in surface plasmon resonance with immobilized human FOLR1 recombinant protein as the ligand. After saturation of the ligand with VHH 1 an equimolar mixture of VHH 1 and VHH 2 was injected. Percentages express the loss in response level of VHH 2, relative to the response when VHH 2 was injected alone.

[4] = target: T1, human FOLR1 recombinant protein …; test: SPR dual injection on immobilized human FOLR1, 250 nM; competitor (1st VHH, saturating) A3; by the legend the value is of the 2nd VHH
Procedure: as §1, §2

[5] = target: T1, human FOLR1 recombinant protein …; test: SPR dual injection on immobilized human FOLR1, 250 nM; competitor (1st VHH, saturating) A4; by the legend the value is of the 2nd VHH
Procedure: as §1, §2

[6] = target: T1, human FOLR1 recombinant protein …; test: SPR dual injection on immobilized human FOLR1, 250 nM; competitor (1st VHH, saturating) A5; by the legend the value is of the 2nd VHH
Procedure: as §1, §2

[7] = target: T2, human FOLR1 expressed on SKOV-3 ovarian carcinoma cells (human, UniProt P15328 25-234); test: saturation binding of 131I-labelled His6-tagged VHH on SKOV-3 cells (0-300 nM); non-specific binding by 100-fold unlabelled VHH
T2 construct: Naturally expressed receptor on SKOV-3 cells; also called human FOLR1pos SKOV-3 cancer cells; human FOLR1-expressing cell line SKOV-3
T2 sequence (P15328 25-234 limits assumed): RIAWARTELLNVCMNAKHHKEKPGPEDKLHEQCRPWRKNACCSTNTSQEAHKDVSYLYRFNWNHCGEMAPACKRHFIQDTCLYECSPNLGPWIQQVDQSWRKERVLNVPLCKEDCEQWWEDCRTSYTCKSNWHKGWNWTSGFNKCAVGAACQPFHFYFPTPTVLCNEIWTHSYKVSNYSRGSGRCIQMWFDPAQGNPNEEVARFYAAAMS
Procedure: In a first part, their in vitro behaviour was assessed by means of investigating their cellular binding and retention over time. The binding potential of the resulting radioconjugates was assessed to confirm that this was not affected by the introduction of ¹³¹I-SGMIB into the amino acid sequence of the different VHHs. To this, human FOLR1^pos SKOV-3 cancer cells were incubated with serial dilutions with concentrations ranging from 0 to 300 nM of the different ¹³¹I-labelled, His₆ tagged VHHs. A 100-fold excess of the corresponding unlabeled VHH was added in parallel to saturate the human FOLR1 receptors expressed on cancer cells, to assess non-specific binding.

[8] = target: T2, human FOLR1 expressed on SKOV-3 ovarian …; test: cellular retention on SKOV-3 cells: 10 nM 131I-VHH 1 h at 4 C, then up to 24 h at 37 C; membrane-bound plus internalized fraction
Procedure: The in vitro cellular retention of the different His₆- and untagged ¹³¹I-labeled VHHs was assessed on the same cancer cells. In this particular case, human FOLR1^pos SKOV-3 cancer cells were incubated with 10 nM ¹³¹I-labelled VHHs for 1h at 4° C., after which the unbound fraction was collected. A 100-fold excess of the corresponding unlabeled VHH to assess non-specific binding. Next, the cells were incubated with fresh medium up to 24 h at 37° C., after which the dissociated fraction was collected. Afterwards, the cells were washed with 0.05 M glycine pH 2.8 to collect the membrane-bound fraction. Finally, cells were solubilized with 1 M NaOH at room temperature to collect the internalized fraction. The sum of the membrane-bound and internalized fractions corresponds to the total cell-associated fraction.

[9] = target: T3, human folate receptor beta (FOLR2), extracellular domain, recombinant (human, UniProt P14207 17-228, limits assumed); test: ELISA, coated recombinant protein, HA-tagged VHH in bacterial extract
T3 construct: extracellular domain; Bought protein; also called human FOLR2
T3 sequence (P14207 17-228 limits assumed): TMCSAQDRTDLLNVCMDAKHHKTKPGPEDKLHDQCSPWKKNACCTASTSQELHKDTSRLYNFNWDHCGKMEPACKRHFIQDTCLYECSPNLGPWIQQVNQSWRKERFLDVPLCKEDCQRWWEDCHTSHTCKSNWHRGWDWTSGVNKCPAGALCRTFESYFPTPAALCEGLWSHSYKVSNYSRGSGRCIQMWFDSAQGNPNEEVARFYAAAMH
Procedure: (§3) The day before, 0.1 µg recombinant protein at a concentration of 1 µg/mL in 100 mM NaHCO3, pH 8.2 was coated in a 96-well ELISA plate (Nunc MaxiSorp). Per VHH clone also a blank coated well was foreseen (only buffer). The wells were overcoated with protein-free T20 (PBS) blocking buffer (Pierce). After washing with PBS, pH7.4, 0.05% Tween, VHH-containing bacterial extract was added to every well. Binding of HA-tagged VHHs was detected by using mouse anti-HA.11 epitope tag (clone 16B12, Biolegend) as the primary Ab and goat anti-mouse IgG (whole molecule) alkaline phosphatase conjugate (Sigma-Aldrich) as the secondary Ab, with thorough washing with PBS, pH 7.4, 0.05% Tween in between. Signals were developed using phosphatase substrate (Sigma-Aldrich) in AP blot buffer (100 mM NaCl, 50 mM MgCl2, 100 mM Tris, pH 9.5). The absorbance was determined at 405 nm using an absorbance microplate reader (Molecular Devices). Per clone the ratio was determined between the absorbance in the antigen-coated well versus the well without antigen.

[10] = target: T4, human folate receptor gamma (FOLR3), recombinant (human, UniProt P41439 23-245, limits assumed); test: as above
T4 construct: extracellular domain; Bought protein; also called human FOLR3
T4 sequence (P41439 23-245 limits assumed): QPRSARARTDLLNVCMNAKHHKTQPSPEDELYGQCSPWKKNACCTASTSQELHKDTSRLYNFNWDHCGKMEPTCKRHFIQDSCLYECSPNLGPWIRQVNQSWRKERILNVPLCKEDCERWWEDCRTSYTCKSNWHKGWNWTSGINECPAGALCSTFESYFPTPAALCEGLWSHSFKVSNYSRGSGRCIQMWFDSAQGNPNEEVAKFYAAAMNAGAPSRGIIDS
Procedure: as §3

[11] = target: T5, murine FOLR1, extracellular domain, recombinant (murine, UniProt P35846 25-232); test: as above
T5 construct: extracellular domain; Bought protein; also called mouse FOLR1
T5 sequence (P35846 25-232 limits assumed): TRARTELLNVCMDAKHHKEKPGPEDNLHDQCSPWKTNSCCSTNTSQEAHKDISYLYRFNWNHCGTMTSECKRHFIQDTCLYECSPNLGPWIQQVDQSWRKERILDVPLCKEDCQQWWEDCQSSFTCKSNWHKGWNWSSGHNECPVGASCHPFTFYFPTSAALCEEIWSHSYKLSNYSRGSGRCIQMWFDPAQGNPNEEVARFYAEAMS
Procedure: as §3

[12] = target: human FOLR1 recombinant protein (extracellular domain of human folate receptor alpha) (human) (UniProt P15328); test: ELISA; coated recombinant protein, HA-tagged VHH in bacterial extract, anti-HA detection; A405 antigen well / blank well
Chain of human FOLR1 recombinant protein (extracellular domain of human folate receptor alpha) (human) (P15328 25-233): as the sequence (P15328 25-233) above

[13] = target: T3, human folate receptor beta (FOLR2), …; test: as above
Procedure: as §3

[14] = target: T4, human folate receptor gamma (FOLR3), …; test: as above
Procedure: as §3

[15] = target: T5, murine FOLR1, extracellular domain, …; test: as above
Procedure: as §3

- Kd [1]: 0.24 nM
- koff [1]: 0.00033 s⁻¹
- kon [1]: 1.3e+06 M⁻¹ s⁻¹
- Kd [2]: 1.5 nM
- koff [2]: 0.00068 s⁻¹
- kon [2]: 440000 M⁻¹ s⁻¹
- loss in response level of VHH 2 relative to VHH 2 injected alone [3]: -96%
- loss in response level of VHH 2 relative to VHH 2 injected alone [4]: -99%
- loss in response level of VHH 2 relative to VHH 2 injected alone [5]: -96%
- loss in response level of VHH 2 relative to VHH 2 injected alone [6]: -86%
B1: His6-tagged variant of VHH A2 (VHH)
VHH: DVQLVESGGGLVQAGGSLRLSCAADEMKFSNYDLAWYRRAPGKQRELAAIITSGGSTNYPDSVKGRFTISRDNAKNTVYLEMNSLKPEDTAVYYCNALRPWPQFSDYWGQGTQVTVSS
notes: Purified, unlabelled; also called A2 His6-tag

- EC50 [7]: 1.1 nM
- cell-associated fraction of initial bound activity after 24 h [8]: ~60%
B2: 131I-labeled His6-tagged VHH A2 (VHH)
VHH: B1 VHH
modifications: [131I]SGMIB conjugated to lysine side-chain amine groups

- binding result [9]: no binding
- binding result [10]: no binding
- binding result [11]: no binding
- signal-to-background ratio [12]: > 20
- signal-to-background ratio [13]: ~1
- signal-to-background ratio [14]: ~1
- signal-to-background ratio [15]: ~1
B3: HA-tagged variant of VHH A1 (VHH)
VHH: QVQLQESGGGLVQPGGSLRLSCAASESIFSRNHMSWYRQAPGKQRELAAIITSDGNTNYPDSVKGRFTISRDNAKNTVYLQMNSLKPEDTAVYYCNTFGRSVAGFYDYWGQGTQVTVSS
notes: Used as VHH-containing bacterial (periplasmic) extract in ELISA; also called A1 HA-tag

- EC50 [7]: 0.7 nM
- cell-associated fraction of initial bound activity after 24 h [8]: ~40%
B4: 131I-labeled His6-tagged VHH A1 (VHH)
VHH: B3 VHH with Q1D, Q5V
modifications: [131I]SGMIB conjugated to lysine side-chain amine groups

- EC50 [7]: 5.8 nM
- cell-associated fraction of initial bound activity after 24 h [8]: 10%
B5: 131I-labeled His6-tagged VHH A4 (VHH)
VHH: DVQLVESGGGLARAGGSLRLSCAASGRAFSSTYAMGWFRQAPGKEREFVADINWSEGSPMYIDSVKDRFTISRDNARNSLYLQMNSLKSEDTAVYYCAARRFGQGYEYWGQGTQVTVSS
modifications: [131I]SGMIB conjugated to lysine side-chain amine groups

- binding result [9]: no binding
- binding result [10]: no binding
- binding result [11]: no binding
- signal-to-background ratio [12]: > 20
- signal-to-background ratio [13]: ~1
- signal-to-background ratio [14]: ~1
- signal-to-background ratio [15]: ~1
B6: HA-tagged variant of VHH A3 (VHH)
VHH: QVQLQESGGGLVQAGGSLRLSCGVSGNMFSMNLMGWYRQPPGKERDWVAVITKDGSTNYADSVKGRFTISRDNAKNTVSLQMNSLKPEDTAVYYCNVQDGSGWIRAWGWDWGQGTQVTVSS
notes: Used as VHH-containing bacterial (periplasmic) extract in ELISA; also called A3 HA-tag

- Kd [1]: 0.92 nM
- koff [1]: 0.0011 s⁻¹
- kon [1]: 1.2e+06 M⁻¹ s⁻¹
- Kd [2]: 1.9 nM
- koff [2]: 0.00063 s⁻¹
- kon [2]: 330000 M⁻¹ s⁻¹
- loss in response level of VHH 2 relative to VHH 2 injected alone [3]: -97%
- loss in response level of VHH 2 relative to VHH 2 injected alone [5]: -97%
- loss in response level of VHH 2 relative to VHH 2 injected alone [6]: -89%
B7: His6-tagged variant of VHH A3 (VHH)
VHH: B6 VHH with Q1D, Q5V
notes: Purified, unlabelled; also called A3 His6-tag

- EC50 [7]: 4.5 nM
- cell-associated fraction of initial bound activity after 24 h [8]: 20%
B8: 131I-labeled His6-tagged VHH A3 (VHH)
VHH: B6 VHH with Q1D, Q5V
modifications: [131I]SGMIB conjugated to lysine side-chain amine groups
